Laboratory results published in patent US20050272636A1, “Treatment and diagnosis of a reproductive disorder by measuring or inhibiting interferon-gamma” (Adelaide Research & Innovation Pty Ltd., priority 2002, published 2005).

Experiments:
[1] = tested on: uterine luminal fluid content of GM-CSF; test: Effect of IFN-γ treatment on GM-CSF content of uterine luminal fluids in mice (Example 7); type: in vivo; settings: 5 ng or 20 ng transcervical on day 1 of pregnancy; fluids 7 hrs later; p=0.03 versus PBS control, treatment groups combined
Method: Mice were housed under specific pathogen-free conditions at the University of Adelaide Medical School Animal House on a 12:12 light-dark cycle, and were administered food and water ad libitum. Adult C57B1/6×CBA F1 females (7-10 weeks old) were caged with proven fertile Balb/c males for natural mating. The day of sighting a vaginal plug was nominated day 1 of pregnancy. Mice were randomly allocated to one of three groups and administered transcervical treatments of either 5 ng or 20 ng recombinant mouse IFN-γ (rmIFN-γ; R&D Systems) in 30 μl PBS containing 0.1% bovine serum albumin (PBS-BSA), or PBS-BSA alone (PBS control), at 0900 h on day 1. Treatments were delivered directly into the uterine lumen with the aid of a tom-cat catheter (Sovereign, St Louis Mo.), after removal of vaginal plugs using forceps to allow transcervical access. Mice were sacrificed 7 hrs later at 1600 h on day 1, and uterine luminal fluids were flushed in 1 ml PBS-BSA with a syringe and 26 gauge needle.
GM-CSF immunoactivity in uterine luminal fluids was measured by commercial mouse GM-CSF specific ELISA (R & D Systems) according to the manufacturer's instructions. Data are given as GM-CSF content in pg/ml uterine luminal fluid.

[2] = tested on: murine uterine epithelial cells; test: Effect of rIFNγ and rTGFβ on GM-CSF production in cultured uterine epithelial cells (Example 2); type: cell-based, mouse
Method: Uterine Epithelial Cell Cultures. Uterine epithelial cells prepared as previously described (Robertson et al., Biol Reprod 46:1069-1079 (1992)) were pooled from 4-6 estrous C57B1/6 or C57B1/6×Balb/c F1 mice and plated in 1 ml culture wells (Nunc, Roskilde, Germany) at 1-2×10^5 cells per ml in 500 μl of Dulbecco's modified Eagles medium containing 10% FCS, […] streptomycin sulphate and […] benzyl penicillin (DMEM +penicillin). After 4 h incubation at 37° C. in 5% CO2 to allow cell adherence, a further 500 μl of DMEM +penicillin, or DMEM +penicillin plus recombinant mouse IFNγ (rIFNγ) and/or recombinant human TGFβ1 (rTGFβ), were added. In some experiments, penicillin-free DMEM (DMEM −penicillin) was used throughout. Culture supernatants were collected and replaced with fresh medium at 16 hours, then collected again 24 hours later, at which time GM-CSF content was determined and adherent cells were quantified as previously described (Robertson et al., Biol Reprod 46:1069-1079 (1992)). All treatments were performed in duplicate or triplicate. rTGFβ and rIFNγ were obtained from R&D Systems, UK.
GM-CSF bioassay: GM-CSF was assayed using the GM-CSF dependant cell line FD 5/12, essentially as previously described (Robertson et al., Biol Reprod 46:1069-1079 (1992)). Cell proliferation was determined by pulsing with 1 μCi of [^3H]-thymidine per well for the last 6 h of the assay. The minimal detectable amount of GM-CSF was 20 pg/ml. The identity of the bioactivity in uterine epithelial cell cultures was confirmed using a goat polyclonal antibody to murine GM-CSF (DNAX, Palo Alto, Calif.) as previously described (Robertson et al., Biol Reprod 46:1069-1079 (1992)). GM-CSF production is expressed as ng GM-CSF/10^5 cells/24 h. Recombinant mouse GM-CSF was obtained from R&D Systems.

[3] = tested on: murine uterine epithelial cells; test: Effect of IFNγ on GM-CSF synthesis in murine uterine epithelial cells (Example 3); type: cell-based, mouse
Method: Uterine Epithelial Cell Cultures. Uterine epithelial cells prepared by pancreatin-trypsin digest as previously described (Robertson et al., (1992) Biol. Reprod. 46:1069-1079) were pooled from 4-6 estrous adult C57B1/6×CBA F1 female mice and plated in 1 ml culture wells (Nunc, Roskilde, Germany) at 1-2×10^5 cells per ml in 500 μl of RPMI containing 10% FCS and streptomycin (RPMI-FCS). Penicillin was omitted from culture media except where specified. After 4 h incubation at 37° C. in 5% CO2 to allow cell adherence, a further 500 μl of cytokines or antibodies in RPMI-FCS, or RPMI-FCS alone, were added. Cytokine treatments included recombinant mouse interferon-γ (rmIFNγ; R&D Systems), recombinant human transforming growth factor β1 (rhTGFβ1, R&D Systems), rhTGFβ2 (R&D Systems), rhTGFβ3 (OSI Pharmaceuticals). Antibody treatments included goat anti-mouse IFNγ receptor 1 (αIFNγR; R&D Systems AF1026) and hamster anti-mouse IFNγ (αIFNγ; R&D Systems MAB4851). Culture supernatants were collected and replaced with fresh complete RPMI-FCS alone at 16 hours, then collected again 24 hours later, at which time adherent cells were quantified as previously described (Robertson et al., (1992) Biol. Reprod. 46:1069-1079). The GM-CSF content of 24 h supernatants was determined by GM-CSF bioassay or immunoassay. All treatments were performed in duplicate or triplicate.
GM-CSF bioassay and immunoassay: Bioactive GM-CSF was assayed using the GM-CSF dependant cell line FD 5/12, essentially as previously described (Robertson et al., (1992) Biol. Reprod. 46:1069-1079). Cell proliferation was determined by the addition of 1 μCi of [^3H]-thymidine per well for the last 6 h of the assay. […] GM-CSF immunoactivity was in some experiments measured by commercial mouse GM-CSF specific ELISA (R & D Systems) according to the manufacturer's instructions.

B1: rIFNγ: recombinant mouse IFNγ (R&D Systems) (protein, UniProt P01580 23-155, looked up)
Interferon gamma: HGTVIESLESLNNYFNSSGIDVEEKSLFLDIWRNWQKDGDMKILQSQIISFYLRLFEVLKDNQAISNNISVIESHLITTFFSNSKAKKDAFMSIAKFEVNNPQVQRQAFNELIRVVHQLLPESSLRKRKRSRC
[1]
  effect on uterine luminal fluid content of GM-CSF: reduce uterine luminal fluid content of GM-CSF
[2]; DMEM +penicillin
  rIFNγ concentrations at which an inhibitory effect was not seen: less than 150 pg/ml
[2]; DMEM +penicillin, dose-dependent decrease in each of three experiments
  rIFN-γ concentration eliciting maximal decrease in GM-CSF production: ≥ 2.5 ng/mL
[2]; DMEM -penicillin, three experiments
  rIFNγ concentration giving maximal decrease in GM-CSF production: ≥ 2.5 ng/mL
[2]; absence of penicillin
  rIFNγ concentration at which inhibitory effect was still observed: 2 pg/mL
[2]; in the presence of 0.5 ng/ml rTGFβ
  lowest effective concentration of rIFNγ: 39 pg/mL
[2]; in the presence of 5 ng/ml of rTGFβ
  lowest effective inhibitory concentration of rIFNγ: 2.5 ng/mL
[2]; rTGFβ-stimulated cells, DMEM +penicillin
  rIFNγ concentration with maximal inhibition of rTGFβ induction of GM-CSF synthesis: ≥ 2.5 ng/mL
[3]
  IFNγ concentration giving significant inhibition (GM-CSF synthesis <50% of control values): > 150 pg/mL
[3]; absence of penicillin
  IFNγ concentration inhibiting GM-CSF synthesis (<50% of control values): ≥ 9.8 pg/mL
[3]; more than six experiments, penicillin omitted
  IFNγ concentration at which inhibition of GM-CSF synthesis was evident: ≥ 40 pg/mL
